Source: patent US20060194739 (published 2006)
Non-standard residues stand in square brackets, D forms with d. No end group written: not given here. *: point of attachment. Trp(5-CN) = N#Cc1ccc2[nH]cc(C[C@H](N)C(=O)O)c2c1; Ac6c = NC1(C(=O)O)CCCCC1; Hexanoyl = CCCCCC(=O)*; Propionyl = CCC(=O)*; Ahx = NCCCCCC(=O)O

B1: VII-55-A (peptide)
chain: Ac-RYY[Ahx]WR-NH2
SMILES: CC(=O)N[C@@H](CCCNC(=N)N)C(=O)N[C@@H](Cc1ccc(O)cc1)C(=O)N[C@@H](Cc1ccc(O)cc1)C(=O)NCCCCCC(=O)N[C@@H](Cc1c[nH]c2ccccc12)C(=O)N[C@@H](CCCNC(=N)N)C(N)=O
B2: VII-57-C (peptide)
chain: Ac-RYYRW[Ahx]-NH2
SMILES: CC(=O)N[C@@H](CCCNC(=N)N)C(=O)N[C@@H](Cc1ccc(O)cc1)C(=O)N[C@@H](Cc1ccc(O)cc1)C(=O)N[C@@H](CCCNC(=N)N)C(=O)N[C@@H](Cc1c[nH]c2ccccc12)C(=O)NCCCCCC(N)=O
B3: VII-4-B (peptide)
chain: [Ac6c]RYYRWR-NH2
modifications: N-terminus assumed
SMILES: N=C(N)NCCC[C@H](NC(=O)[C@H](Cc1c[nH]c2ccccc12)NC(=O)[C@H](CCCNC(=N)N)NC(=O)[C@H](Cc1ccc(O)cc1)NC(=O)[C@H](Cc1ccc(O)cc1)NC(=O)[C@H](CCCNC(=N)N)NC(=O)C1(N)CCCCC1)C(N)=O
B4: VII-51-A (peptide)
chain: Ac-RYYR[Trp(5-CN)]R-NH2
SMILES: CC(=O)N[C@@H](CCCNC(=N)N)C(=O)N[C@@H](Cc1ccc(O)cc1)C(=O)N[C@@H](Cc1ccc(O)cc1)C(=O)N[C@@H](CCCNC(=N)N)C(=O)N[C@@H](Cc1c[nH]c2ccc(C#N)cc12)C(=O)N[C@@H](CCCNC(=N)N)C(N)=O
B5: IV-35-B (peptide)
chain: Hexanoyl-RAYRWR-NH2
SMILES: CCCCCC(=O)N[C@@H](CCCNC(=N)N)C(=O)N[C@@H](C)C(=O)N[C@@H](Cc1ccc(O)cc1)C(=O)N[C@@H](CCCNC(=N)N)C(=O)N[C@@H](Cc1c[nH]c2ccccc12)C(=O)N[C@@H](CCCNC(=N)N)C(N)=O
B6: IV-29-B (peptide)
chain: Propionyl-RYYRAR-NH2
SMILES: CCC(=O)N[C@@H](CCCNC(=N)N)C(=O)N[C@@H](Cc1ccc(O)cc1)C(=O)N[C@@H](Cc1ccc(O)cc1)C(=O)N[C@@H](CCCNC(=N)N)C(=O)N[C@@H](C)C(=O)N[C@@H](CCCNC(=N)N)C(N)=O
B7: IV-21-C (peptide)
chain: Propionyl-AYYRWR-NH2
SMILES: CCC(=O)N[C@@H](C)C(=O)N[C@@H](Cc1ccc(O)cc1)C(=O)N[C@@H](Cc1ccc(O)cc1)C(=O)N[C@@H](CCCNC(=N)N)C(=O)N[C@@H](Cc1c[nH]c2ccccc12)C(=O)N[C@@H](CCCNC(=N)N)C(N)=O
B8: IV-33-B (peptide)
chain: Hexanoyl-AYYRWR-NH2
SMILES: CCCCCC(=O)N[C@@H](C)C(=O)N[C@@H](Cc1ccc(O)cc1)C(=O)N[C@@H](Cc1ccc(O)cc1)C(=O)N[C@@H](CCCNC(=N)N)C(=O)N[C@@H](Cc1c[nH]c2ccccc12)C(=O)N[C@@H](CCCNC(=N)N)C(N)=O
B9: IV-23-B (peptide)
chain: Propionyl-RAYRWR-NH2
SMILES: CCC(=O)N[C@@H](CCCNC(=N)N)C(=O)N[C@@H](C)C(=O)N[C@@H](Cc1ccc(O)cc1)C(=O)N[C@@H](CCCNC(=N)N)C(=O)N[C@@H](Cc1c[nH]c2ccccc12)C(=O)N[C@@H](CCCNC(=N)N)C(N)=O
B10: IV-27-B (peptide)
chain: Propionyl-RYYAWR-NH2
SMILES: CCC(=O)N[C@@H](CCCNC(=N)N)C(=O)N[C@@H](Cc1ccc(O)cc1)C(=O)N[C@@H](Cc1ccc(O)cc1)C(=O)N[C@@H](C)C(=O)N[C@@H](Cc1c[nH]c2ccccc12)C(=O)N[C@@H](CCCNC(=N)N)C(N)=O
B11: IV-41-B (peptide)
chain: Hexanoyl-RYYRAR-NH2
SMILES: CCCCCC(=O)N[C@@H](CCCNC(=N)N)C(=O)N[C@@H](Cc1ccc(O)cc1)C(=O)N[C@@H](Cc1ccc(O)cc1)C(=O)N[C@@H](CCCNC(=N)N)C(=O)N[C@@H](C)C(=O)N[C@@H](CCCNC(=N)N)C(N)=O
B12: IV-39-B (peptide)
chain: Hexanoyl-RYYAWR-NH2
SMILES: CCCCCC(=O)N[C@@H](CCCNC(=N)N)C(=O)N[C@@H](Cc1ccc(O)cc1)C(=O)N[C@@H](Cc1ccc(O)cc1)C(=O)N[C@@H](C)C(=O)N[C@@H](Cc1c[nH]c2ccccc12)C(=O)N[C@@H](CCCNC(=N)N)C(N)=O
B13: IV-12-B (peptide)
chain: Ac-R[dY]Y[dR]WR-NH2
SMILES: CC(=O)N[C@@H](CCCNC(=N)N)C(=O)N[C@H](Cc1ccc(O)cc1)C(=O)N[C@@H](Cc1ccc(O)cc1)C(=O)N[C@H](CCCNC(=N)N)C(=O)N[C@@H](Cc1c[nH]c2ccccc12)C(=O)N[C@@H](CCCNC(=N)N)C(N)=O

target: ORL1 (UniProt P41146); experiment: competition
Sequence (P41146 whole entry): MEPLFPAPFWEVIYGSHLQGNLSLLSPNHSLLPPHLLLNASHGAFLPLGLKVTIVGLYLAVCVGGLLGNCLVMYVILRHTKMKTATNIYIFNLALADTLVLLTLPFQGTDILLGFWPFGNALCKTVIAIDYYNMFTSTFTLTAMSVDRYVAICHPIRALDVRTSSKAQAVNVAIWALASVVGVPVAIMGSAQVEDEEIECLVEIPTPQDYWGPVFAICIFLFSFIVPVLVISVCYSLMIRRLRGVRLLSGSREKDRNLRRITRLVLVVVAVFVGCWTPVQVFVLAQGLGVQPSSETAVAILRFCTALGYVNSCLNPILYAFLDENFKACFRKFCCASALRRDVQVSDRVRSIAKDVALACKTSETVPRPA

Question: For B1, which Ki is on record?
Answer: 39 nM

Question: For B2, which Ki is on record?
Answer: 41.9 nM

Question: B3 was tested. Which Ki did it give?
Answer: 9.25 nM

Question: Which Ki does the source give for B4 here?
Answer: 0.3 nM

target: ORL1 (UniProt P41146); experiment: competition; remark: another data set of the same source

Question: For B5, which IC50 is on record?
Answer: 113 nM

Question: Which IC50 does the source give for B6 here?
Answer: 1890 nM

Question: Which IC50 does the source give for B7 here?
Answer: 1780 nM

Question: With B8 as the binder, how does the IC50 read?
Answer: 1020 nM

Question: How did the IC50 turn out when B9 was run?
Answer: 182 nM

Question: Which IC50 does the source give for B10 here?
Answer: 400 nM

Question: Which IC50 does the source give for B11 here?
Answer: 710 nM

Question: B12 was tested. Which IC50 did it give?
Answer: 1000 nM

target: ORL1 (UniProt P41146); experiment: competition, [3H]nociceptin

Question: B13 was tested. Which IC50 did it give?
Answer: 1140 nM
